Measured values: patent US20230013784A1 (JIANGSU HENGRUI MEDICINE, published 2023)

T1: human CEA protein on the cell surface of MKN45 human gastric cancer cells (human, UniProt P06731 35-685)
T1 construct: whole, on cells; GPI-anchored glycoprotein; also called CEACAM-5; CD66e
T1 sequence (looked up): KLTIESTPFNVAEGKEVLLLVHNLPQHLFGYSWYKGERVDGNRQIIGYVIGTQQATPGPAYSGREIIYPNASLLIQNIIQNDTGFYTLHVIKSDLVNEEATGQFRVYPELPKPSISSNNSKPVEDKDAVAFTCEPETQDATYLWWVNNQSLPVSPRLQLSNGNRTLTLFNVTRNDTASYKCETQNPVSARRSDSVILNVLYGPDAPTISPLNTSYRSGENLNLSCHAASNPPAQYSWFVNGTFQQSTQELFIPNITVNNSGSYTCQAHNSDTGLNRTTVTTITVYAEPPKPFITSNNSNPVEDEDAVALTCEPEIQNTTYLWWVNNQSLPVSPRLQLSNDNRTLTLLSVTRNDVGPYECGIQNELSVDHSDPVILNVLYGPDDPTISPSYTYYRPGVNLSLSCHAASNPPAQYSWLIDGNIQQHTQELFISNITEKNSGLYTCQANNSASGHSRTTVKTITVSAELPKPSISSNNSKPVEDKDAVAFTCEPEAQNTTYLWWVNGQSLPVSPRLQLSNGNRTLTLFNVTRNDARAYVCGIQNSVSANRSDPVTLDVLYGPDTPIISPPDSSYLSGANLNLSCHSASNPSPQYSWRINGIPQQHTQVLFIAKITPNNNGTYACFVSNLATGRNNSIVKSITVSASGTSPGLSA

B1: mAb63 (antibody, V domains shown)
VH: EVQLQQSGPELVKPGASVKMSCKASGYTFTDFYMNWVRQSHGKSLEWIGDIFPKNGNTDYNRKFKDKATLTVDKSSNTVYMEFRSLTLEDSAIYFCARSGYGNYVFDYWGQGTIFTVSS
VL: DVQMTQTPSALSASLGDRVTISCRTSQDINIYLNWYQQKPDGTVKLLIYYRSGLLSGVPSRFSGSGSGTDYSLTISNLEPEDIATYFCQQGNTLPPTFGGGTKLEIK
notes: murine hybridoma antibody
B2: mAb47 (antibody, V domains shown)
VH: QIQLVQSGPELKKPGETVKISCKASGYTFTTYGMSWVKQAPGKGLKWMGWINTYSGVPTYADDFKGRFAFSLETSASTAYLQINNLKNEDTATYFCARRGNYGRWDFDVWGTGTTVTVSS
VL: EIVLTQSPALMAASPGEKVTITCSVSSTISSSNLHWYQQKSETSPKPWIYGTSNLASGVPVRFSGSGSGTSYSLTISSMEAEDAATYYCQQWSIYPLTFGAGTKLELK
notes: murine hybridoma antibody
B3: mAb103 (antibody, V domains shown)
VH: QIQLVQSGPELKKPGETVKISCKASGYTFTTYGVIWVKQAPGKGLKWMGWINTYSGVPTYADDFKGRFAFSLETSASTAFLQINNLKNEDTATYFCARKKTLTTVTPWFAYWGQGTLVTVSA
VL: DLVVTQSSSASFSLGASAKLTCTLSSQHSTYTIEWYQQQPLKPPKYVMELKKDGSHSTGDGIPDRFSGSSSGADRYLTISNIQPEDEAIYICGVGNTIKEQFVYVFGGGTKVTVL
notes: murine hybridoma antibody

biological target: T1, human CEA protein on the cell surface …; assay: FACS on MKN45; with/without 5 ug/ml sCEA as competitor
Procedure: In order to detect whether the antibody preferentially binds to CEA present on the surface of cell membrane in the presence of sCEA (as shown in SEQ ID NO:1), the inventors pre-incubated a gradient of diluted antibodies with a certain concentration of sCEA (5 μg/ml) for 30 min, then MKN45 cells were collected (human gastric cancer cells, Nanjing Kebai Biotechnology Co., Ltd., Cat #CBP60488) and loaded into 96-well plate. The gradient of diluted antibodies as well as the mixture of pre-incubated antibody and sCEA were separately added to each well, incubated at 4° C. for 60 min and centrifuged to remove the supernatant. Pre-cooled PBS containing a final concentration of 10% FBS was added to wash the cells, repeated twice. 50 μl of 1:200 diluted secondary antibody Alexa Fluor@488 goat anti-human IgG (H+L) (Lifetechologies, Cat #A11013) was added, incubated at 4° C. in dark for 45 min and centrifuged to remove the supernatant. 250 μl of pre-cooled PBS containing a final concentration of 10% FBS was added to wash the cells; repeated twice. 100 μl of pre-cooled PBS was added to each well for resuspension. Flow cytometer (FACS) was used for detection to obtain the fluorescence signal value.

maximum fluorescence signal ratio (without sCEA v.s. with sCEA) | Binder
1.43 | B1
1.08 | B2
1.02 | B3
